From US20240010735A1 (EISAI R AND D MANAGEMENT, published 2024)

Columns and labels:
Experiment in all cases: ELISA: SEAP-His proteins (1 nM) captured on anti-6-His antibody, antibody B 10 µg/mL with human IgG 100 µg/mL, HRP anti-human IgG, OD450 as % of human EphA4-SEAP-His
[1] = target: T1, human EphA10 extracellular region-SEAP-His protein (human, UniProt Q5JZY3 34-565)
T1 construct: extracellular domain; also called Eph receptor extracellular region-SEAP-His protein; not shown: secretory alkaline phosphatase (SEAP); histidine tag
T1 sequence (looked up): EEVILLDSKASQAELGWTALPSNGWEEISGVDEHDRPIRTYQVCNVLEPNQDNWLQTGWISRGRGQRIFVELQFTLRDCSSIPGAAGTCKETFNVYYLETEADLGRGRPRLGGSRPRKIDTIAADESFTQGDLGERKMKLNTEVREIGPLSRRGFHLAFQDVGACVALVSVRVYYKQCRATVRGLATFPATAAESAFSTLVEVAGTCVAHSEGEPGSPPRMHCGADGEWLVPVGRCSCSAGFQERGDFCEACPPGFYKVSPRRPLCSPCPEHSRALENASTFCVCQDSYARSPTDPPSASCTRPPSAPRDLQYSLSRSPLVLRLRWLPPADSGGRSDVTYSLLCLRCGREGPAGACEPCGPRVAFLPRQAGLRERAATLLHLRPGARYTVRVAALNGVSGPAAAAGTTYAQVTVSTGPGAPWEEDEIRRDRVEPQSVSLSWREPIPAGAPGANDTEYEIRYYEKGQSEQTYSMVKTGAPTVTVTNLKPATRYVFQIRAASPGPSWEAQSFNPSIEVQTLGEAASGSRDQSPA

[2] = target: T2, human EphB1 extracellular region-SEAP-His protein (human, UniProt P54762 18-540)
T2 construct: extracellular domain; also called Eph receptor extracellular region-SEAP-His protein; not shown: secretory alkaline phosphatase (SEAP); histidine tag
T2 sequence (looked up): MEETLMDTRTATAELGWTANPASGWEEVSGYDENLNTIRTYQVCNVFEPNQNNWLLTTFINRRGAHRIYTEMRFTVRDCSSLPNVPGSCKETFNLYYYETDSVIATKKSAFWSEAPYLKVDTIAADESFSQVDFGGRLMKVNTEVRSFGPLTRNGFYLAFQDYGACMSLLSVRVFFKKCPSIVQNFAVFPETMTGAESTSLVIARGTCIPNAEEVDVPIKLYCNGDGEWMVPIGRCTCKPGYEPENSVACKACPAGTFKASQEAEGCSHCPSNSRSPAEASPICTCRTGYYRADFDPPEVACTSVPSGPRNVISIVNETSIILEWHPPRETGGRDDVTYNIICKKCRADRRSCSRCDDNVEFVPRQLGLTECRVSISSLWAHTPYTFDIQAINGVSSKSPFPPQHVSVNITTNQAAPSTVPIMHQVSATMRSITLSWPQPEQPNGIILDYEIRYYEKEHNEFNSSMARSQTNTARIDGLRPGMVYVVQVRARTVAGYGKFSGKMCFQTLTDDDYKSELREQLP

[3] = target: T3, human EphA5 extracellular region-SEAP-His protein (human, UniProt P54756 25-573)
T3 construct: extracellular domain; also called Eph receptor extracellular region-SEAP-His protein; not shown: secretory alkaline phosphatase (SEAP); histidine tag
T3 sequence (P54756 25-573): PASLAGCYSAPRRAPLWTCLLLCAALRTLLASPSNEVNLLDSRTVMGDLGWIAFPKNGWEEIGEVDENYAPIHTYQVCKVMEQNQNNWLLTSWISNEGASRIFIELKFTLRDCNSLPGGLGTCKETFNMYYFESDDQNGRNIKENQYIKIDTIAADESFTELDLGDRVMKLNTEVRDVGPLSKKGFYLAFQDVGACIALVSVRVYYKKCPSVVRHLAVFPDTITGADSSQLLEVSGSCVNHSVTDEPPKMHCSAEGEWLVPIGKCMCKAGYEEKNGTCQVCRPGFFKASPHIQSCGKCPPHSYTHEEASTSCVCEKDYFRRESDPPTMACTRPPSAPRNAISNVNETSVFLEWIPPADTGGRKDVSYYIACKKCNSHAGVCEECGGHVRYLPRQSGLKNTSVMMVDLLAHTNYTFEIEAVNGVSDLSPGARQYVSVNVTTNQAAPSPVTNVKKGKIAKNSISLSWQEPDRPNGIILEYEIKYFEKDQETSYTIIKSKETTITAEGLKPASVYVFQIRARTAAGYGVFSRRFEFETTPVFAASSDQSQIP

[4] = target: T4, human EphB3 extracellular region-SEAP-His protein (human, UniProt P54753 34-559)
T4 construct: extracellular domain; also called Eph receptor extracellular region-SEAP-His protein; not shown: secretory alkaline phosphatase (SEAP); histidine tag
T4 sequence (looked up): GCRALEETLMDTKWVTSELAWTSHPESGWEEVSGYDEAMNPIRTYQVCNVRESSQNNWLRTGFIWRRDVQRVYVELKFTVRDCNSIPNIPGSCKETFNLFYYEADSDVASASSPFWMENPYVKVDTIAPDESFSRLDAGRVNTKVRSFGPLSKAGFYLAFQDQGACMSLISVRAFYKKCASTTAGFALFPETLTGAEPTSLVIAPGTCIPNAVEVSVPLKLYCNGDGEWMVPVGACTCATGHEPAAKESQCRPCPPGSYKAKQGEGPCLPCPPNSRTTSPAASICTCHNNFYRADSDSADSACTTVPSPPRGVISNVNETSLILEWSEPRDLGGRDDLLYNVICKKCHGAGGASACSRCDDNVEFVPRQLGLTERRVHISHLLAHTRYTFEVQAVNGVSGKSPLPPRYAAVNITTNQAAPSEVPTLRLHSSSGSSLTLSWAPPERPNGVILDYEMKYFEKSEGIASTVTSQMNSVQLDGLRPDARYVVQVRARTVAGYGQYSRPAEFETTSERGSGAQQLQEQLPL

[5] = target: T5, human EphA3 extracellular region-SEAP-His protein (human, UniProt P29320 21-541)
T5 construct: extracellular domain; also called Eph receptor extracellular region-SEAP-His protein; not shown: secretory alkaline phosphatase (SEAP); histidine tag
T5 sequence (looked up): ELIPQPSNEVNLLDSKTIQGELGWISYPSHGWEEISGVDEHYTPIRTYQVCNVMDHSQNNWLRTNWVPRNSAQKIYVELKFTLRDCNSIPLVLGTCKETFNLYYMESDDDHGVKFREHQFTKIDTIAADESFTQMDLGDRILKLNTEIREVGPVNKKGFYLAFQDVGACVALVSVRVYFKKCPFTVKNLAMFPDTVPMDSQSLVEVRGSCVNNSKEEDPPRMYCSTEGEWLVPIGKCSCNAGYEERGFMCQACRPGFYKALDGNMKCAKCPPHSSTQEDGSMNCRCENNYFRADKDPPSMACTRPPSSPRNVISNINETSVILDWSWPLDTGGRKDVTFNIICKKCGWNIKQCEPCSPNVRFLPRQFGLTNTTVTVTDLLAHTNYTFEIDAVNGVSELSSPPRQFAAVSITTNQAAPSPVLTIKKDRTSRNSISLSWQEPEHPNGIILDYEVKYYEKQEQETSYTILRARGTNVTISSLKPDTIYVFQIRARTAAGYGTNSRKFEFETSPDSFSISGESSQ

Measured: binding result

B1: humanized anti-EphA4 monoclonal antibody (antibody B) (antibody, human IgG2, V domains shown)
VH: QVQLVESGGGVVQPGRSLRLSCAVSGFSLTRFGVHWVRQAPGKGLEWVAVIWRGGSTDYNAAFMSRLTISKDNSKNTVYLQMNSLRAEDTAVYYCAKESLFGVYYDYGYYSMDYWGQGTTVTVSS
VL: DIQMTQSPSSLSASVGDRVTITCRASQEISGYLSWLQQKPGKAPKRLIYAASTLDSGVPSRFSGSRSGTEYTLTISSLQPEDFATYYCLQYASYPLTFGGGTKVEIKR
notes: expressed in Expi293F cells; also called humanized antibody of antibody A; HK2-42 / L1-8
no binding (tested: 10 µg/mL): all assays above
